Test in all cases: cell-based or functional assay
Experiment [1] has as its target GPCR73b receptor (Homo sapiens (Human)) (UniProt Q8NFJ6).
Experiment [2] addresses GPCR73a receptor (Homo sapiens (Human)) (UniProt Q8TCW9).
For experiment [3], the target named is GPCR73b receptor (Homo sapiens (Human)) (UniProt Q8NFJ6). The source holds these as a separate data set.
Experiment [4] deals with GPCR73a receptor (Homo sapiens (Human)) (UniProt Q8TCW9). The source holds these as a separate data set.
The target of experiment [5] is Zven1 receptor on Wky12-22 cells (rat).

Data on two molecules can be found in US20040162238A1.

Like-named read-outs stand apart in the source and are kept apart here.

Chain of GPCR73b receptor (Homo sapiens (Human)) (Q8NFJ6 whole entry): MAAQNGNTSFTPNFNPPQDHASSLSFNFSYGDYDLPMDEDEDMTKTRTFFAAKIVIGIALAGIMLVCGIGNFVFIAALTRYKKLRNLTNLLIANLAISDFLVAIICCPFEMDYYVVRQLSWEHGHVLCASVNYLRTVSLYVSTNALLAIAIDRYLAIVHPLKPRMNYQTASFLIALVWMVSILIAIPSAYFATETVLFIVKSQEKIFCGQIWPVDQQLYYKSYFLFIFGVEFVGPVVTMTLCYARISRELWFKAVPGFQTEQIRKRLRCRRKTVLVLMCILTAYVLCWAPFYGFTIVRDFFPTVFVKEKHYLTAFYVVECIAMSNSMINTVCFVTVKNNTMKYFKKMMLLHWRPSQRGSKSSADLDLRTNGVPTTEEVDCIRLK
Chain of GPCR73a receptor (Homo sapiens (Human)) (Q8TCW9 whole entry): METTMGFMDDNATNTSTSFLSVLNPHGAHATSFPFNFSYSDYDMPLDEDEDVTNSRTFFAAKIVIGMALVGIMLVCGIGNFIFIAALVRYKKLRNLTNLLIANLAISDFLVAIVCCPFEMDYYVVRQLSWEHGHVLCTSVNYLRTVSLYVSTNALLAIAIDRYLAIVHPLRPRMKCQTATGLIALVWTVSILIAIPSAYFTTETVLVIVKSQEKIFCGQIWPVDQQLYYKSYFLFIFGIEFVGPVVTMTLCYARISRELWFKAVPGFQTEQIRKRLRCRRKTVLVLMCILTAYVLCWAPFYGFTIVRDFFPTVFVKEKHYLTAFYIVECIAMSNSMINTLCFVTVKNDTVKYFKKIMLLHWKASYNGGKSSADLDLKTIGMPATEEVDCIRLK

B1: Zven2 ("endocrine-gland-derived vascular endothelial growth factor") protein purchased from Peprotech, Inc. (ligand)
chain: AVITGACERDVQCGAGTCCAISLWLRGLRMCTPLGREGEECHPGSHKVPFFRKRKHHTCPCLPNLLCSRFPDGRYRCSMDLKNINF
On to B1, for which, in experiment [1], the SRE luciferase fold-induction at 3.2 ng/ml, Rat2 cells with GPCR73b (fold-induction) turned out to be 1.4; the SRE luciferase fold-induction at 32 ng/ml, Rat2 cells with GPCR73b (fold-induction) is 2.7; the SRE luciferase fold-induction at 100 ng/ml, Rat2 cells with GPCR73b (fold-induction) amounted to 4.1; the SRE luciferase fold-induction at 320 ng/ml, Rat2 cells with GPCR73b (fold-induction) was 5.8. Also, the SRE luciferase fold-induction at 1000 ng/ml, Rat2 cells with GPCR73b (fold-induction) in experiment [1] turned out to be 6.1. In addition, in experiment [2], the SRE luciferase fold-induction at 1 ng/ml, Rat2 cells with GPCR73a (fold-induction) came to 0.95; the SRE luciferase fold-induction at 3.2 ng/ml, Rat2 cells with GPCR73a (fold-induction) was 1.3; the SRE luciferase fold-induction at 10 ng/ml, Rat2 cells with GPCR73a (fold-induction) stood at 2.6; the SRE luciferase fold-induction at 32 ng/ml, Rat2 cells with GPCR73a (fold-induction) was 7.2. Moreover, in experiment [2], the SRE luciferase fold-induction at 320 ng/ml, Rat2 cells with GPCR73a (fold-induction) is 20.5 and the SRE luciferase fold-induction at 1000 ng/ml, Rat2 cells with GPCR73a (fold-induction) is 15. Moreover, in experiment [3], the SRE luciferase fold-induction at 1 ng/ml, Rat2 cells with GPCR73b (fold-induction) was 1.1; the SRE luciferase fold-induction at 3.2 ng/ml, Rat2 cells with GPCR73b (fold-induction) worked out at 1.3; the SRE luciferase fold-induction at 10 ng/ml, Rat2 cells with GPCR73b (fold-induction) was determined as 1.8; the SRE luciferase fold-induction at 32 ng/ml, Rat2 cells with GPCR73b (fold-induction) came out at 2.8. In experiment [3], the SRE luciferase fold-induction at 100 ng/ml, Rat2 cells with GPCR73b (fold-induction) came to 5.6; the SRE luciferase fold-induction at 320 ng/ml, Rat2 cells with GPCR73b (fold-induction) was 8.3; the SRE luciferase fold-induction at 1000 ng/ml, Rat2 cells with GPCR73b (fold-induction) turned out to be 8.4. In experiment [4], the SRE luciferase fold-induction at 1 ng/ml, Rat2 cells with GPCR73a (fold-induction) worked out at 1.2; the SRE luciferase fold-induction at 3.2 ng/ml, Rat2 cells with GPCR73a (fold-induction) is 1.6; the SRE luciferase fold-induction at 10 ng/ml, Rat2 cells with GPCR73a (fold-induction) was 2.5; the SRE luciferase fold-induction at 32 ng/ml, Rat2 cells with GPCR73a (fold-induction) is 5.8. Also, in experiment [4], the SRE luciferase fold-induction at 100 ng/ml, Rat2 cells with GPCR73a (fold-induction) was 11.4; the SRE luciferase fold-induction at 320 ng/ml, Rat2 cells with GPCR73a (fold-induction) was found to be 24.4; the SRE luciferase fold-induction at 1000 ng/ml, Rat2 cells with GPCR73a (fold-induction) was found to be 20.

B2: Zven1 protein produced in baculovirus with a C-terminal Glu-Glu tag (ligand)
chain: AVITGACDKDSQCGGGMCCAVSIWVKSIRICTPMGKLGDSCHPLTRKVPFFGRRMHHTCPCLPGLACLRTSFNRFICLAQKGLEYMPMD
As to B2, in experiment [5], the ERK-Map kinase activity EC50 in Wky12-22 cells (Arrayscan) was 0.5 nM. Also, in experiment [4], the SRE luciferase fold-induction at 1 ng/ml, Zven1 heated at 56 C for 30 minutes, Rat2 cells with GPCR73a (fold-induction) turned out to be 1.8; the SRE luciferase fold-induction at 1 ng/ml, fresh Zven1, Rat2 cells with GPCR73a (fold-induction) came out at 2.5; the SRE luciferase fold-induction at 3.2 ng/ml, Zven1 heated at 56 C for 30 minutes, Rat2 cells with GPCR73a (fold-induction) is 3.7; the SRE luciferase fold-induction at 3.2 ng/ml, fresh Zven1, Rat2 cells with GPCR73a (fold-induction) was determined as 7.1. In experiment [4], the SRE luciferase fold-induction at 10 ng/ml, Zven1 heated at 56 C for 30 minutes, Rat2 cells with GPCR73a (fold-induction) came to 10; the SRE luciferase fold-induction at 10 ng/ml, fresh Zven1, Rat2 cells with GPCR73a (fold-induction) amounted to 13.1; the SRE luciferase fold-induction at 32 ng/ml, Zven1 heated at 56 C for 30 minutes, Rat2 cells with GPCR73a (fold-induction) came to 14.8; the SRE luciferase fold-induction at 32 ng/ml, fresh Zven1, Rat2 cells with GPCR73a (fold-induction) came out at 18.7. In experiment [4], the SRE luciferase fold-induction at 100 ng/ml, Zven1 heated at 56 C for 30 minutes, Rat2 cells with GPCR73a (fold-induction) was 18.6 and the SRE luciferase fold-induction at 100 ng/ml, fresh Zven1, Rat2 cells with GPCR73a (fold-induction) came to 20.5.
